Results from article PMC13389011, “Expedient single-round selection of hyper-modified aptamer targeting insulin receptor from over-represented dually nucleobase-modified DNA libraries”.
Positions count from the first letter of the chain named.

B1: HIR-6_N (ssDNA)
DNA: CATGACGCTCACTGTATCTCGCGTTTAACGTAACAGCGATGTCTCTCATGATGTC
B2: HIR-8_N (ssDNA)
DNA: B1 DNA with G23C, C34G
B3: HIR-6_M2 (XNA)
DNA: B1 DNA with T24U, T25U, T26U, T31U, T40U
modifications: DNA backbone; 7-deaza-7-(indolyl-ethyl)-dA (dAAIn) at 27,28,32,33,35,39; 5-(phenyl-ethynyl)-dU (dUEPh) at 24,25,26,31,40
B4: HIR-6_T2 (XNA)
DNA: CATGACGCTCACTGTATCTCGCGUUUAACGUAACAGCGAUGUCUC
modifications: DNA backbone; 7-deaza-7-(indolyl-ethyl)-dA (dAAIn) at 27,28,32,33,35,39; 5-(phenyl-ethynyl)-dU (dUEPh) at 24,25,26,31,40,42,44
B5: HIR-6_T8 (XNA)
DNA: ACTGTATCTCGCGUUUAACGUAACAGCGAU
modifications: DNA backbone; 7-deaza-7-(indolyl-ethyl)-dA (dAAIn) at 17,18,22,23,25,29; 5-(phenyl-ethynyl)-dU (dUEPh) at 14,15,16,21,30
B6: HIR-6_T5 (XNA)
DNA: ACTGTATCTCGCGUUUAACGUAACAGCGAUGUCUCUCAUGAUGUC
modifications: DNA backbone; 7-deaza-7-(indolyl-ethyl)-dA (dAAIn) at 17,18,22,23,25,29,38,41; 5-(phenyl-ethynyl)-dU (dUEPh) at 14,15,16,21,30,32,34,36,39,42,44
B7: HIR-6_T9 (XNA)
DNA: CGCTCACTGTATCTCGCGUUUAACGUAACAGCGAUGUCUC
modifications: DNA backbone; 7-deaza-7-(indolyl-ethyl)-dA (dAAIn) at 22,23,27,28,30,34; 5-(phenyl-ethynyl)-dU (dUEPh) at 19,20,21,26,35,37,39
B8: HIR-6_T7 (XNA)
DNA: CGCTCACTGTATCTCGCGUUUAACGUAACAGCGAU
modifications: DNA backbone; 7-deaza-7-(indolyl-ethyl)-dA (dAAIn) at 22,23,27,28,30,34; 5-(phenyl-ethynyl)-dU (dUEPh) at 19,20,21,26,35
B9: HIR-6_T6 (XNA)
DNA: TATCTCGCGUUUAACGUAACAGCGAUGUCUCUCAUGAUGUC
modifications: DNA backbone; 7-deaza-7-(indolyl-ethyl)-dA (dAAIn) at 13,14,18,19,21,25,34,37; 5-(phenyl-ethynyl)-dU (dUEPh) at 10,11,12,17,26,28,30,32,35,38,40
B10: HIR-6_T4 (XNA)
DNA: CGCTCACTGTATCTCGCGUUUAACGUAACAGCGAUGUCUCUCAUGAUGUC
modifications: DNA backbone; 7-deaza-7-(indolyl-ethyl)-dA (dAAIn) at 22,23,27,28,30,34,43,46; 5-(phenyl-ethynyl)-dU (dUEPh) at 19,20,21,26,35,37,39,41,44,47,49
B11: HIR-6_T1 (XNA)
DNA: CATGACGCTCACTGTATCTCGCGUUUAACGUAACAGCGAUGUCUCUCAUG
modifications: DNA backbone; 7-deaza-7-(indolyl-ethyl)-dA (dAAIn) at 27,28,32,33,35,39,48; 5-(phenyl-ethynyl)-dU (dUEPh) at 24,25,26,31,40,42,44,46,49
B12: HIR-6_T3 (XNA)
DNA: CATGACGCTCACTGTATCTCGCGUUUAACGUAACAGCGAU
modifications: DNA backbone; 7-deaza-7-(indolyl-ethyl)-dA (dAAIn) at 27,28,32,33,35,39; 5-(phenyl-ethynyl)-dU (dUEPh) at 24,25,26,31,40
B13: HIR-6 (XNA)
DNA: CATGACGCTCACTGTATCTCGCGUUUAACGUAACAGCGAUGUCUCUCAUGAUGUC
modifications: DNA backbone; 7-deaza-7-(indolyl-ethyl)-dA (dAAIn) at 27,28,32,33,35,39,48,51; 5-(phenyl-ethynyl)-dU (dUEPh) at 24,25,26,31,40,42,44,46,49,52,54

Target: Human insulin receptor ectodomain (HIR) (Homo sapiens, UniProt P06213-2;P06213-2 28-746;751-944)
Experiment: fluorescent Ni-plate binding assay (FNBA); PBS (1.5 mM KH2PO4, 8.1 mM Na2HPO4, 2.7 mM KCl, 137 mM NaCl) with 5 mM MgCl2, pH 7.4; MST with 0.1% Pluronic F-127 at 25 C; FNBA at room temperature; high values mean tight binding
Settings: protein: commercial; tags: His-tag; chain copies: 2;2; label: 5'-Cy5

Sequence of Human insulin receptor ectodomain (HIR) (Homo sapiens, UniProt P06213-2;P06213-2 28-746;751-944) (P06213 other isoform, or with tags, fused parts or gaps, chain 1 of 2): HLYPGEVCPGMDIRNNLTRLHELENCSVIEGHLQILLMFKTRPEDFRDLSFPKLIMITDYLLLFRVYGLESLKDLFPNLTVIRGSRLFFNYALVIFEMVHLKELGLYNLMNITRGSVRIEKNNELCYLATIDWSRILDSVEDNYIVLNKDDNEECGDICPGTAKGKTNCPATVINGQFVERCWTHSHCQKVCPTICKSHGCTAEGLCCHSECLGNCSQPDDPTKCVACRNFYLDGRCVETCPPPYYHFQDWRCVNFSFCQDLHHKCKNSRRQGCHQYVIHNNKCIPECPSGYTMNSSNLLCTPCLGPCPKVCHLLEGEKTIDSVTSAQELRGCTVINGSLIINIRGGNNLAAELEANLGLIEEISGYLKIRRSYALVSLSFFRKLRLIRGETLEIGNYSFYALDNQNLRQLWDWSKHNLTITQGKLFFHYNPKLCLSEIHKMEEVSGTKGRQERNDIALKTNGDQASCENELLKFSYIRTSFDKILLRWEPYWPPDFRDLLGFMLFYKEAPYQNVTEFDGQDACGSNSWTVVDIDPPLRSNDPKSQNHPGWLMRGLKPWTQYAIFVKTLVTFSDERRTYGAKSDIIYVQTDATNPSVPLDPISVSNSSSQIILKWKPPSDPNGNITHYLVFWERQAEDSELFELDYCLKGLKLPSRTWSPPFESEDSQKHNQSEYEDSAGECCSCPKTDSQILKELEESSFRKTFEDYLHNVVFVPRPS
Sequence of Human insulin receptor ectodomain (HIR) (Homo sapiens, UniProt P06213-2;P06213-2 28-746;751-944) (P06213 763-956, chain 2 of 2): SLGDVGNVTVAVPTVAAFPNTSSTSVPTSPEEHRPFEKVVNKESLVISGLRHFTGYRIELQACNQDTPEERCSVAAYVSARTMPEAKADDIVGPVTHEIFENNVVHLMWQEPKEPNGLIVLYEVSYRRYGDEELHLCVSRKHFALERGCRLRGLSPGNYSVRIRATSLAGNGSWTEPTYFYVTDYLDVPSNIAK

Binder	binding signal [a.u. fluorescence]
B1	184 ± 176
B2	553 ± 165
B3	28300
B4	30900
B5	13400
B6	45900 ± 733
B7	24700
B8	16500
B9	45500
B10	44700
B11	26300
B12	19900

Same assay, conditions: protein: commercial; tags: His-tag; chain copies: 2;2; label: 5'-Cy5; hairpin, stem 18-22/36-40, A35 bulge

Binder	binding signal [a.u. fluorescence]
B13	45000 ± 766

Target: Human insulin receptor ectodomain (HIR) (Homo sapiens, UniProt P06213-2 28-944)
Experiment: FNBA; IB: PBS (1.5 mM KH2PO4, 8.1 mM Na2HPO4, 2.7 mM KCl, 137 mM NaCl) + 5 mM MgCl2, pH 7.4; MST +0.1% Pluronic F-127, 25 C; SPR 25 C; FNBA and BLI r.t.
Settings: protein: commercial; tags: His-tag; chain copies: 2; label: 5'-Cy5

Sequence of Human insulin receptor ectodomain (HIR) (Homo sapiens, UniProt P06213-2 28-944) (P06213 other isoform, or with tags, fused parts or gaps): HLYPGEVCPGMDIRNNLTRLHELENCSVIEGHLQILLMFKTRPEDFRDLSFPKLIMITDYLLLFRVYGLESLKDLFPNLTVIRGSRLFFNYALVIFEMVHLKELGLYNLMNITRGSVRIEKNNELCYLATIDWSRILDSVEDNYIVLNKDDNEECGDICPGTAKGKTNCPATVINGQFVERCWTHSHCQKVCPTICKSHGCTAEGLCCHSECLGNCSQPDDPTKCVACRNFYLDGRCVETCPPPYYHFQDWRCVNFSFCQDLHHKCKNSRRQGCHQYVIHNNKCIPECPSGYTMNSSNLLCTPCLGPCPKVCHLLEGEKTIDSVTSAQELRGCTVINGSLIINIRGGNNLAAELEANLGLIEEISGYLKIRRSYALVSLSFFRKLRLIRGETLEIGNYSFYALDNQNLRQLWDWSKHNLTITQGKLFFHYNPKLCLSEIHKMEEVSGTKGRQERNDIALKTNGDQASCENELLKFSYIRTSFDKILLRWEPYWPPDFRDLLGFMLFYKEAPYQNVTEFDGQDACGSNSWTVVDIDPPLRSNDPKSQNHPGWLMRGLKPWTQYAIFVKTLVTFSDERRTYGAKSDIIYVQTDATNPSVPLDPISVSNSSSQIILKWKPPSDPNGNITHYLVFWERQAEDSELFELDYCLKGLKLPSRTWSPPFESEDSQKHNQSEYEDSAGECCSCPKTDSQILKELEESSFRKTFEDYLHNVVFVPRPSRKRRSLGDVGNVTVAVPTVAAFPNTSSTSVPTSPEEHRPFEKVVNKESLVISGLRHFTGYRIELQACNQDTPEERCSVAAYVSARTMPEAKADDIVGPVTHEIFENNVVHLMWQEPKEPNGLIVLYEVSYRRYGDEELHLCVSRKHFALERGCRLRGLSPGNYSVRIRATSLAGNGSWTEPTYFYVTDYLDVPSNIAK

Binder	binding result
B1	no binding
B2	no binding
